Assay results from the supplement of paper PMC10201428.
± gives the standard deviation of the averaged measurements.

Experiments:
[1] = test system: VchCAST RNA-guided transposition machinery (E. coli BL21(DE3) host, lacZ target); experiment: relative integration efficiency (T-LR orientation) vs wild-type transposon end (log2 (normalized fold change)); transposon end mutated: left end; higher = more efficient transposition
Procedure: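 Pooled, barcoded VchCAST (Tn6677) mini-transposon donor libraries; each variable transposon-end sequence sits in a fixed pDonor mini-transposon context (10-bp barcode and cargo not included). Left- or right-end libraries were co-transformed with pEffector (TniQ-Cascade, TnsABC, lacZ crRNA, T7, 0.1 mM IPTG) into E. coli BL21(DE3) and grown 18 h at 37 C. T-LR and T-RL junction amplicons were sequenced; output/input barcode fold change was normalised to the mean of four wild-type barcodes and log2-transformed. Two biological replicates; zero-count/undetected variants carry floor values (-10 / -15), censored here. Barcode uncoupling by PCR recombination adds noise.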

[2] = test system: VchCAST RNA-guided transposition machinery (E. coli BL21(DE3) host, lacZ target); experiment: relative integration efficiency (T-RL orientation) vs wild-type transposon end (log2 (normalized fold change)); transposon end mutated: left end; higher = more efficient transposition
In short: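 In E. coli BL21(DE3), a T7-driven effector plasmid was paired with a pUC57 mini-transposon donor containing 1549 left-end or 1849 right-end barcoded transposon variants. Cells grew on plates with 0.1 mM IPTG at 37°C for 18 h. Relative integration efficiency was derived from Illumina reads of genomic integration junctions against input plasmids, as a log-transformed output/input barcode fold change normalised to reference barcodes.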

Sequence	relative integration efficiency (log2) [1]	relative integration efficiency (log2) [2]
AATGTTGTTGATGCAACCAATTTCTGATATTTAATAATTATTTATAATCAGCAACTTAACCACAAAACAACCAATATATGATATCTCACAAAACAACCAATTCATGATATTTTTGTGAATCGAGTATTTCAGCAAAACTACTGCAGTAAGAA	-1.57 ± 0.77	-2.5 ± 1.1
AATGTTGTTGATGCAACCAGCCCTGTCGCGGGCCGCCGGCGGGCGCCGACTACCAGGCCAACACCCCACCAACGCGCGGTCGCGAGACACCCCACCAACGCCTGGTCGCGGGGGTGTCCGATCTGATTTCAGCAAAACTACTGCAGTAAGAA	-9 ± 0.31	< -10
AATGTTGTTGATGCAACCATAAAATGATAATTAATAATTATTTATAATCAGCAACTTAACCACAAAACAACCATAAAATGATAATTAACAAAAGTTGGTATTCAACTATAAAATGTGAATCGAGTATTTCAGCAAAACTACTGCAGTAAGAA	-1.23 ± 2.7	-2.57 ± 1.3
AATGTTGTTGATGCAACCATAAAATGATAATTAATAATTATTTATAATCAGCAACTTAACCACAAAACAACCATAAAATGATAATTAACAAAATAATTATCATTTTATGGTTGTGTGAATCGAGTATTTCAGCAAAACTACTGCAGTAAGAA	0.0912 ± 1.6	-3.63 ± 0.84
AATGTTGTTGATGCAACCATAAAATGATAATTAATAATTATTTATAATCAGCAACTTAACCACAAAACAACCATAAAATGATAATTATTTTGTCAACCATAAAATGATAATTATGTGAATCGAGTATTTCAGCAAAACTACTGCAGTAAGAA	-1.36 ± 1.1	-1.39 ± 0.9
AATGTTGTTGATGCAACCATAAAATGATAATTAATAATTATTTATAATCAGCAACTTAACCACAAAACAACCATAAAGTGATATTTAACAAAAGTTGGTATTCAACTATAAAATGTGAATCGAGTATTTCAGCAAAACTACTGCAGTAAGAA	-0.635 ± 1	-2.33 ± 0.95
AATGTTGTTGATGCAACCATAAAATGATAATTAATAATTATTTATAATCAGCAACTTAACCACAAAACAACCATAAGTTGATATTTTACAAAAGTTGGTATTCAACTATAAAATGTGAATCGAGTATTTCAGCAAAACTACTGCAGTAAGAA	-1.49 ± 1.9	-2.24 ± 0.86
AATGTTGTTGATGCAACCATAAAATGATAATTAATAATTATTTATAATCAGCAACTTAACCACAAAACAACCATATATTGATATCTCACAAAAGTTGGTATTCAACTATAAAATGTGAATCGAGTATTTCAGCAAAACTACTGCAGTAAGAA	-0.862 ± 0.91	-2.59 ± 1.1
AATGTTGTTGATGCAACCATAAAATGATAATTAATAATTATTTATAATCAGCAACTTAACCACAAAACACCCATAAATTGATAATTAACAAAAGTTGGTATTCAACTATAAAATGTGAATCGAGTATTTCAGCAAAACTACTGCAGTAAGAA	-0.121 ± 0.44	-2.02 ± 1.1
AATGTTGTTGATGCAACCATAAAATGATAATTAATAATTATTTATAATCAGCAACTTAACCACAAAACACCCATAAATTGATATTGCACAAAAGTTGGTATTCAACTATAAAATGTGAATCGAGTATTTCAGCAAAACTACTGCAGTAAGAA	-1.48 ± 0.57	-3.1 ± 1.4
AATGTTGTTGATGCAACCATAAAATGATAATTAATAATTATTTATAATCAGCAACTTAACCACAAAATAATTATCATTTTATGGTTGACAAAATAATTATCATTTTATGGTTGTGTGAATCGAGTATTTCAGCAAAACTACTGCAGTAAGAA	-0.969 ± 0.98	-6.03 ± 2.2
AATGTTGTTGATGCAACCATAAAGTGAGCGGGCATAATTATTTATAATCAGCAACTTAACCACAAAACAACCATATATTGAGCGAGAACAAAACAACCATAAGTTGAGCGGGGTGTGAATCGAGTATTTCAGCAAAACTACTGCAGTAAGAA	-4.11 ± 0.54	-6.46 ± 1.3
